Assay results taken from publication PMC10914487, “Interaction of human dendritic cell receptor DEC205/CD205 with keratins” (The Journal of Biological Chemistry, 2024).

B1: CysR∼CTLD3-Fc of DEC205 [human] / K10-T10 (residue G481-G490), SUMO fusion [human] (parent complex)
chain 1: SGRAANDPFTIVHGNTGKCIKPVYGWIVADDCDETEDKLWKWVSQHRLFHLHSQKCLGLDITKSVNELRMFSCDSSAMLWWKCEHHSLYGAARYRLALKDGHGTAISNASDVWKKGGSEESLCDQPYHEIYTRDGNSYGRPCEFPFLIDGTWHHDCILDEDHSGPWCATTLNYEYDRKWGICLKPENGCEDNWEKNEQFGSCYQFNTQTALSWKEAYVSCQNQGADLLSINSAAELTYLKEKEGIAKIFWIGLNQLYSARGWEWSDHKPLNFLNWDPDRPSAPTIGGSSCARMDAESGLWQSFSCEAQLPYVCRKPLNNTVELTDVWTYSDTRCDAGWLPNNGFCYLLVNESNSWDKAHAKCKAFSSDLISIHSLADVEVVVTKLHNEDIKEEVWIGLKNINIPTLFQWSDGTEVTLTYWDENEPNVPYNKTPNCVSYLGELGQWKVQSCEEKLKYVCKRKGEKLNDASSDKMCPPDEGWKRHGETCYKIYEDEVPFGTNCNLTITSRFEQEYLNDLMKKYDKSLRKYFWTGLRDVDSCGEYNWATVGGRRRAVTFSNWNFLEPASPGGCVAMSTGKSVGKWEVKDCRSFKALSICKKMS
chain 2: GSSGGGHGGG

Variants of: B1
Test: ELISA; pH 6.0; protein conc 5 µg/ml (highest point of the titration); parent: 3.9; read off a plot

**Q.** For chain 2 H7R, which response is on record?
**A.** ~1.9 OD 450

**Q.** How did the response turn out when chain 2 S3R was run?
**A.** ~2.1 OD 450
